Read-outs that look alike come from different tables or passages of the source. Where no end group is shown, it is not given here.
Key:
[1] = target: T1, αCD3 scFv; assay: competition ELISA; peptide titrated and pre-incubated with a constant concentration of αCD3 scFv; blocked: binding of the scFv to plate-bound biotinylated CD3
T1 construct: also called anti-CD3 scFv; CD3 scFv (SP34.185) wt

[2] = target: T2, Human TROP2 Full length (human, UniProt P09758 31-323); assay: cell-based or functional assay
T2 sequence: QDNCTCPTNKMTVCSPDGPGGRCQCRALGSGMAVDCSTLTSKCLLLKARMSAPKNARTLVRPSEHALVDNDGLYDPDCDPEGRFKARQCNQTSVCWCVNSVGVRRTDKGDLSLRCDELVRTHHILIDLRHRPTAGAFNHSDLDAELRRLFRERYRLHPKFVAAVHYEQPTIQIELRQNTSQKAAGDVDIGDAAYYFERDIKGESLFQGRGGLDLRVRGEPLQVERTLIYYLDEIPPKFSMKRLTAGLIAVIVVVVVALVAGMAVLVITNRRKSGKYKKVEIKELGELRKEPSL

[3] = target: T3, Cyno TROP2 Full length (cynomolgus monkey, UniProt P09758 31-323 (human entry)); assay: cell-based or functional assay
T3 chain: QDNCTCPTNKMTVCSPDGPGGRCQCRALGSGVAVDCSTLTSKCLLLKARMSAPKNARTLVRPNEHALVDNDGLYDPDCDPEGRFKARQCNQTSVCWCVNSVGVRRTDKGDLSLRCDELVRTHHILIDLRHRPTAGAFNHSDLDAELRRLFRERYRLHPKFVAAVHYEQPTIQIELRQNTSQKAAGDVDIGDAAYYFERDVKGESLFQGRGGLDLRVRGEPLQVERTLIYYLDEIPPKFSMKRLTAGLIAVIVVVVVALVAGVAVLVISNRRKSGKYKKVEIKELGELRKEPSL

[4] = target: T4, Human TROP2 ECD (31-274 AA), biotinylated (human, UniProt P09758 31-274, biotinylated (site not stated)); assay: ELISA on immobilized TROP2
T4 construct: also called tumor-associated calcium signal transducer 2; Human TROP2-biotin
T4 sequence: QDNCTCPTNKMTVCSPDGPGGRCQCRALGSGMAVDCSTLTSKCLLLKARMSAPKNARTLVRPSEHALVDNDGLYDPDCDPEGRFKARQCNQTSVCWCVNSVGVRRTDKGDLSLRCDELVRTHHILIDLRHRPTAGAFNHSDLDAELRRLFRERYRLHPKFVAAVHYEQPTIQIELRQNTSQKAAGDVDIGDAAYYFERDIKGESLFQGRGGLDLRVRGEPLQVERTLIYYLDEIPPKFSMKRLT

[5] = target: T4, Human TROP2 ECD (31-274 AA), …; assay: ELISA on immobilized TROP2; remark: listed apart in the source
[6] = target: T5, Human TROP2 ECD (31-274 AA) (human, UniProt P09758 31-274, biotinylated); assay: ELISA; biotinylated TROP2 on neutravidin plates, PC titrated, HRP secondary
T5 construct: also called biotinylated TROP2; TROP2-biotin
T5 sequence: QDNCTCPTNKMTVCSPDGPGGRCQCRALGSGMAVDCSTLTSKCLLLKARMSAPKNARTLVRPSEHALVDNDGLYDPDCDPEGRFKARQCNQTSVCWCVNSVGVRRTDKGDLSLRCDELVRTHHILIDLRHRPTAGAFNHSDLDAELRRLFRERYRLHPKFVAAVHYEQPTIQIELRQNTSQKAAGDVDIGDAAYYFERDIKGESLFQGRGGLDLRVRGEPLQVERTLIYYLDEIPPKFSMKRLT

[7] = target: T4, Human TROP2 ECD (31-274 AA), …; assay: ELISA on immobilized TROP2; remark: listed apart in the source
[8] = target: T6, CD3 (biotinylated CD3 antigen) (human, UniProt P07766 23-126, limits assumed, biotinylated (site not stated)); assay: ELISA, TCE on captured biotin-CD3
T6 construct: also called CD3ε; human CD3
T6 sequence (P07766 23-126 limits assumed): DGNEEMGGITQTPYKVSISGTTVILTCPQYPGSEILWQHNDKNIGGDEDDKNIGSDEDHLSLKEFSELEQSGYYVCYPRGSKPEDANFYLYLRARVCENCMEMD

[9] = target: T7, Peptide-66 (cysteine pairing not given here; also: biotinylated, site not given here); assay: ELISA, TCE on captured biotin-peptide
T7 construct: mask peptide for the CD3 scFv
T7 peptide: GSQCLGPEWEVCPY

[10] = target: T8, Peptide-67 (cysteine pairing not given here; also: biotinylated, site not given here); assay: ELISA, TCE on captured biotin-peptide
T8 construct: mask peptide for the CD3 scFv
T8 peptide: VYCGPEFDESVGCM

[11] = target: T9, Peptide-68 (cysteine pairing not given here; also: biotinylated, site not given here); assay: ELISA, TCE on captured biotin-peptide
T9 construct: mask peptide for the CD3 scFv
T9 peptide: DWCWYSPDNDGLCD

[12] = target: T10, Peptide-69 (cysteine pairing not given here; also: biotinylated, site not given here); assay: ELISA, TCE on captured biotin-peptide
T10 construct: mask peptide for the CD3 scFv
T10 peptide: SECLVDLQSDPCYW

[13] = target: T11, Peptide-71 (cysteine pairing not given here; also: biotinylated, site not given here); assay: ELISA, TCE on captured biotin-peptide
T11 construct: mask peptide for the CD3 scFv
T11 peptide: VDCGPDGDESILCY

[14] = target: T12, Peptide-72 (cysteine pairing not given here; also: biotinylated, site not given here); assay: ELISA, TCE on captured biotin-peptide
T12 construct: mask peptide for the CD3 scFv
T12 peptide: AYCGPEFDESVGCM

[15] = target: T13, Peptide-73 (cysteine pairing not given here; also: biotinylated, site not given here); assay: ELISA, TCE on captured biotin-peptide
T13 construct: mask peptide for the CD3 scFv
T13 peptide: VYCGPEFDESVGCA

[16] = target: T14, Peptide-74 (cysteine pairing not given here; also: biotinylated, site not given here); assay: ELISA, TCE on captured biotin-peptide
T14 construct: mask peptide for the CD3 scFv
T14 peptide: ASQCLGPEWEVCPY

[17] = target: T15, Peptide-75 (cysteine pairing not given here; also: biotinylated, site not given here); assay: ELISA, TCE on captured biotin-peptide
T15 construct: mask peptide for the CD3 scFv
T15 peptide: GSACLGPEWEVCPY

[18] = target: T6, CD3 (biotinylated CD3 antigen); assay: ELISA: biotinylated CD3 captured on neutravidin plates, TCE titrated, HRP secondary antibody
[19] = target: T16, Peptide-70 (cysteine pairing not given here; also: biotinylated, site not given here); assay: ELISA, TCE on captured biotin-peptide
T16 construct: mask peptide for the CD3 scFv
T16 peptide: YLCGPDGDETLACY

[20] = target: T13, Peptide-73; assay: ELISA, TCE on captured biotin-peptide
[21] = target: T17, Peptide-76 (cysteine pairing not given here; also: biotinylated, site not given here); assay: ELISA, TCE on captured biotin-peptide
T17 construct: mask peptide for the CD3 scFv
T17 peptide: YLCGPDADETLACY

[22] = target: T18, Peptide-77 (cysteine pairing not given here; also: biotinylated, site not given here); assay: ELISA, TCE on captured biotin-peptide
T18 construct: mask peptide for the CD3 scFv
T18 peptide: YLCGPDTDETLACY

[23] = target: T19, Peptide-65 (cysteine pairing not given here; also: biotinylated, site not given here); assay: ELISA, TCE on captured biotin-peptide
T19 construct: mask peptide for the CD3 scFv
T19 peptide: QGCGTIADPEPHCW

[24] = target: T9, Peptide-68; assay: ELISA, TCE on captured biotin-peptide
[25] = target: T10, Peptide-69; assay: ELISA, TCE on captured biotin-peptide
[26] = target: T11, Peptide-71; assay: ELISA, TCE on captured biotin-peptide
[27] = target: T12, Peptide-72; assay: ELISA, TCE on captured biotin-peptide
[28] = target: T14, Peptide-74; assay: ELISA, TCE on captured biotin-peptide
[29] = target: T15, Peptide-75; assay: ELISA, TCE on captured biotin-peptide
[30] = target: T6, CD3 (biotinylated CD3 antigen); assay: ELISA: biotinylated CD3 captured on neutravidin plates, TCE titrated, HRP secondary antibody; remark: listed apart in the source
[31] = target: T6, CD3 (biotinylated CD3 antigen); assay: ELISA, TCE on captured biotin-CD3; remark: listed apart in the source
[32] = target: T7, Peptide-66; assay: ELISA, TCE on captured biotin-peptide

B1: Peptide-70 (peptide)
peptide: YLCGPDGDETLACY
notes: also called CD3 scFv peptide mask
With B1 the IC50 [1] was 10 nM.

B2: PC-18 (bispecific antibody)
light: GGVDFCALYHWPICYQGGGGSGGLSGRSDAGSPLGLAGSGGSDIQLTQSPSSLSASVGDRVSITCKASQDVSIAVAWYQQKPGKAPKLLIYSASYRYTGVPDRFSGSGSGTDFTLTISSLQPEDFAVYYCQQHYITPLTFGAGTKVEIKRTVAAPSVFIFPPSDEQLKSGTASVVCLLNNFYPREAKVQWKVDNALQSGNSQESVTEQDSKDSTYSLSSTLTLSKADYEKHKVYACEVTHQGLSSPVTKSFNRGEC
heavy: not shown
notes: Masked polypeptide complex: anti-TROP2 Fab F108A, anti-CD3 scFv wt; cleavable linkers
For B2, the “H292 Cytotoxicity EC50 (pM)” value [2] was greater than 100000 pM, the “HCT116 Cytotoxicity EC50 (pM)” value [2] was greater than 100000 pM and the “CyTROP2 HEK293 EC50 (pM)” value [3] was 8250 pM. It also gave an EC50 [4] of 301 nM, an EC50 [5] of 206 nM and an EC50 [6] of 957 nM.

B3: Peptide-67 (peptide)
peptide: VYCGPEFDESVGCM
notes: as for B1
For B3, the IC50 [1] was 50 nM.

B4: TCE-7 (anti-CD3 wt, anti-TROP2 F108A) (bispecific antibody)
light: DIQLTQSPSSLSASVGDRVSITCKASQDVSIAVAWYQQKPGKAPKLLIYSASYRYTGVPDRFSGSGSGTDFTLTISSLQPEDFAVYYCQQHYITPLTFGAGTKVEIKRTVAAPSVFIFPPSDEQLKSGTASVVCLLNNFYPREAKVQWKVDNALQSGNSQESVTEQDSKDSTYSLSSTLTLSKADYEKHKVYACEVTHQGLSSPVTKSFNRGEC
heavy: not shown
notes: scFv on the Fab heavy chain; the entry already carries the mutation
B4 was tested, and the EC50 [7] was 1.41 nM, the EC50 [4] was 0.36 nM and the EC50 [5] was 0.18 nM.

B5: TCE-33 (anti-CD3 scFv F240A; anti-TROP2 wt) (bispecific antibody)
light: DIQLTQSPSSLSASVGDRVSITCKASQDVSIAVAWYQQKPGKAPKLLIYSASYRYTGVPDRFSGSGSGTDFTLTISSLQPEDFAVYYCQQHYITPLTFGAGTKVEIKRTVAAPSVFIFPPSDEQLKSGTASVVCLLNNFYPREAKVQWKVDNALQSGNSQESVTEQDSKDSTYSLSSTLTLSKADYEKHKVYACEVTHQGLSSPVTKSFNRGEC
heavy: not shown
notes: scFv on the Fab heavy chain; also called TCE-33 (F240A)
B5 gave an EC50 [8] of 1.24 nM, an EC50 [9] of 8.02 nM and an EC50 [10] of 5.78 nM. It also gave an EC50 [11] of 7.71 nM, an EC50 [12] of 0.76 nM and an EC50 [13] of 21.7 nM. It also gave an EC50 [14] of 5.78 nM, an EC50 [15] of 8.15 nM and an EC50 [16] of 5.9 nM. It also gave an EC50 [17] of 9.2 nM and an EC50 [18] of 0.601 nM.

B6: TCE-36 (anti-CD3 scFv H101A; anti-TROP2 F108A) (bispecific antibody)
light: DIQLTQSPSSLSASVGDRVSITCKASQDVSIAVAWYQQKPGKAPKLLIYSASYRYTGVPDRFSGSGSGTDFTLTISSLQPEDFAVYYCQQHYITPLTFGAGTKVEIKRTVAAPSVFIFPPSDEQLKSGTASVVCLLNNFYPREAKVQWKVDNALQSGNSQESVTEQDSKDSTYSLSSTLTLSKADYEKHKVYACEVTHQGLSSPVTKSFNRGEC
heavy: not shown
notes: scFv on the Fab heavy chain
Binder B6 has an EC50 [19] of 0.59 nM, an EC50 [20] of 4.11 nM and an EC50 [21] of 166 nM. It also gave an EC50 [22] of 1620 nM.

B7: TCE-11 (anti-CD3 scFv H101A; anti-TROP2 wt) (bispecific antibody)
light: DIQLTQSPSSLSASVGDRVSITCKASQDVSIAVAWYQQKPGKAPKLLIYSASYRYTGVPDRFSGSGSGTDFTLTISSLQPEDFAVYYCQQHYITPLTFGAGTKVEIKRTVAAPSVFIFPPSDEQLKSGTASVVCLLNNFYPREAKVQWKVDNALQSGNSQESVTEQDSKDSTYSLSSTLTLSKADYEKHKVYACEVTHQGLSSPVTKSFNRGEC
heavy: not shown
notes: scFv on the Fab heavy chain; also called TCE-11 (H101A)
B7 was tested, and the EC50 [23] was 6.92 nM, the EC50 [24] was 60.9 nM and the EC50 [25] was 6.94 nM. The EC50 [26] was 1.28 nM, the EC50 [27] was 1.36 nM and the EC50 [28] was 0.83 nM. It also gave an EC50 [29] of 1.05 nM.

B8: TCE-28 (anti-CD3 scFv S235A; anti-TROP2 wt) (bispecific antibody)
light: DIQLTQSPSSLSASVGDRVSITCKASQDVSIAVAWYQQKPGKAPKLLIYSASYRYTGVPDRFSGSGSGTDFTLTISSLQPEDFAVYYCQQHYITPLTFGAGTKVEIKRTVAAPSVFIFPPSDEQLKSGTASVVCLLNNFYPREAKVQWKVDNALQSGNSQESVTEQDSKDSTYSLSSTLTLSKADYEKHKVYACEVTHQGLSSPVTKSFNRGEC
heavy: not shown
notes: scFv on the Fab heavy chain
B8 was tested, and the EC50 [30] was 0.158 nM.

B9: TCE-14 (anti-CD3 scFv F104A; anti-TROP2 wt) (bispecific antibody)
light: DIQLTQSPSSLSASVGDRVSITCKASQDVSIAVAWYQQKPGKAPKLLIYSASYRYTGVPDRFSGSGSGTDFTLTISSLQPEDFAVYYCQQHYITPLTFGAGTKVEIKRTVAAPSVFIFPPSDEQLKSGTASVVCLLNNFYPREAKVQWKVDNALQSGNSQESVTEQDSKDSTYSLSSTLTLSKADYEKHKVYACEVTHQGLSSPVTKSFNRGEC
heavy: not shown
notes: scFv on the Fab heavy chain; also called TCE-14 (F104A)
For B9, the EC50 [31] was 0.83 nM, the EC50 [23] was 1.52 nM and the EC50 [32] was 0.63 nM. It also gave an EC50 [25] of 1.93 nM, an EC50 [28] of 0.66 nM and an EC50 [29] of 0.88 nM.

Reference: patent US20230357429A1 (JANUX THERAPEUTICS, published 2023)
